# Test results taken from the supplement of paper PMC9170038.
# How the values were obtained:
# MS2 coat protein [1] = test: apparent KD of MS2 coat protein, switch ON state; designed switch direction (-1 OFF switch, 1 ON switch): -1; higher = weaker reporter binding; conditions: FMN input: 0 or 200 uM; Eterna round: R93 (includes R88 designs)
# Method in brief: (§1)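 Illumina sequencing clusters served as templates for on-chip transcription of the designed RNA switches. SNAP-549-labelled MS2 coat protein was then titrated in twofold steps from 0.7 or 1.5 nM to 3 µM, allowing 0.8–1.5 h per step at first and 10–20 min per step later. The buffer held 100 mM Tris-HCl pH 7.5, 80 mM KCl and 4 mM MgCl2, without or with constant ligand. Apparent KD is the median per design of normalised cluster binding-curve fits.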
# MS2 coat protein [2] = test: apparent KD of MS2 coat protein, switch OFF state (with FMN for OFF switches, without FMN for ON switches); designed switch direction (-1 OFF switch, 1 ON switch): -1; higher = weaker reporter binding; conditions: FMN input: 0 or 200 uM; Eterna round: R93 (includes R88 designs)
# Method in brief: as §1
Sequence,apparent KD of MS2 coat protein (MS2 coat protein [1]) [µM],apparent KD of MS2 coat protein (MS2 coat protein [2]) [µM]
AAGAAACAUGAGGAUCACCCAUGUGAGGAUAUACAAAAGAAAAGAAAAGAAAGAAGAAGUAGAAGGCACAAAGG [Djedkare Shemai],0.0225,0.0203
UAAAACUUAGGAUAUACAUGAGGAUCACCCAUGUCAAGACAAGGAAGGUCCUAAGCCGGUAGAAGGAAGAAAAU [Bexeora],0.0296,0.0254
AGUACUACAGGAUAUACGAGGGAGGUCCACGUGAACCUUAUACAUGAGGAUCACCCAUGUAGAAGGGUAGUACA [Ex2 Design 108: Super Stable 8],0.0509,0.0184
AGAUAGUCAGGAUAUACGAACAAGAAAAAAGACGAGAACGGACAUGAGGAUCACCCAUGUAGAAGGGACAAGAA [Diamond 12],0.063,0.037
"AAAAAGGGAGGAUAUACAUGAGGAUCACCCAUGUAUCAGACGAAAAAGAGUCUGAAAAGUAGAAGGCCCAAAAA [65%, Moding Exclusion3-cac2, 6]",0.0155,0.0208
AGCUAGUCAGGAUAUACGCAAACGAACGAAGCAGAGAAGGGACAUGAGGAUCACCCAUGUAGAAGGGACUAGCA [Diamond 31],0.0288,0.0849
AUAAACAGAGGAUAUACACAAAAUAAAGAAAAUAAAGAAACACAUGAGGAUCACCCAUGUAGAAGGCUGGAAAA,0.0233,0.0227
AAGAAGGGAGGAUAUACAAAAUAAAAGAAAAGAAAGAAAGAACAUGAGGAUCACCCAUGUAGAAGGUCCAAGAA [Imyremeshaw],0.0481,0.071
AACUGACAUGAGGAUCACCCAUGUCAGGAUAUGACUUGACGAAAAAAAACACGUCAUGUCAGAAGGGACAUGAA [Design 88: Sub-opt YB],0.015,0.0169
AAAGAUGCAGGAUAUACAUGAGGAUCACCCAUGUUAGACCUGAAAAGGGAAAAAGAAAGUAGAAGGGCAUAAAA [Ex 3 May 32],0.0134,0.017
GAAAAGUCAGGAUAUGUGGAAAAAAUAAAAAAAAUAAAAACACAGAAGGGACAUGAGGAUCACCCAUGUUAAAA [Mat - Exclusion 4 - Mayanna - D137],0.0524,0.0288
GGUUGGCGAGGAUAUACAUGAGGAUCACCCAUGUGAGAAAAAAAAGUGAGAAAGAAAAGUAGAAGGCGCUGACG [salish99-ex3-49],0.0401,0.157
AGCUAGUGAGGAUAUGCGAACAUGUCAAAAGACGUGAAGGGACAUGAGGAUCACCCAUGUAGAAGGCACUAGCA [JL 74% mod 3],0.0264,0.0363
AACAGACAUGAGGAUCACCCAUGUGAGGAUAUCCAAAACGAUAAAACAAGAAUGACAGGGAGAAGGCACAGCAA [JR_Exc001_Sub008],0.0652,0.0522
"AAGCCACAUGAGGAUCACCCAUGUAAGGAUAUGAACGAAAAUAAAUAAAAAUAAAAGUUCAGAAGGUACAAAAA [66%, Wbt, 23]",0.0271,0.0253
AACAAGACAGGAUAUACAUGAGGAUCACCCAUGUCACAACAAAGCAGCGCAACACAAAGUAGAAGGGUCAUGGA [Ruby 11],0.0812,0.0826
UAAAGACAUGAGGAUCACCCAUGUGAGGAUAUCGGAGAUGACGGAACAUCAAGUUCGGCGAGAAGGCGCAGGAA [JR_Exc001_Sub406],0.0309,0.0307
CUCUUGUGAGGAUAUGAAAGAAAAGAAAAGAAAGAAAAGAAUCAGAAGGCACAUGAGGAUCACCCAUGUAAGAA [EteRNA is fun!],0.037,0.0797
UAAAGACAUGAGGAUCACCCAUGUGAGGAUAUCGGAGAUAACAGAACAUCAAGUUCAACGAGAAGGCACAGAAA [JR_Exc001_Sub401],0.0474,0.0947
AAAUUAGGAGGAUAUACAUGAGGAUCACCCAUGUGACGAUGUUACUGCAUGAAGCCAAGUAGAAGGUCUAAGAA [Lacelaatdi],0.0247,0.0495
"AACUAGUCAGGAUAUACGAACAUGUCAAAAGACAUGAAGGGACAUGAGGAUCACCCAUGUAGAAGGGACUAGCA [74%, Web mod - With 2 less G's]",0.044,0.148
AAAAAGUGAGGAUAUGGUAAAAAAAAAAAAAAAAAAAACCUCCAGAAGGCACAUGAGGAUCACCCAUGUCAAAA [Jolly's Folly 3 - Jieux - Exclusion 4],0.0447,0.019
GAAAGGGCAGGAUAUGCGGAGAGAGAGAGAGAGAGAGAGAGACAUGAGGAUCACCCAUGUAGAAGGGCCGAAAG [salish99-ex2-08],0.0369,0.0386

Sequence,apparent KD of MS2 coat protein (MS2 coat protein [1]) [µM],apparent KD of MS2 coat protein (MS2 coat protein [2]) [µM]
AAAAUGUCAGGAUAUGUAGCAAAAGGUGAUCAAAAAAAGCUACAGAAGGGACAUGAGGAUCACCCAUGUAAAAA [Ex4: 935],1.02,2.87
AAGAAUGGAGGAUAUACAUAAAAGAAAGAAAAGAAAAGAAAACAUGAGGAUCACCCAUGUAGAAGGCCAUAGAA [EteRNA is fun!],0.0246,0.0153
GAAAAGGUAGGAUAUACGAAAAAAAAGGGUAGAAAAAAAACACAUGAGGAUCACCCAUGUAGAAGGACCAAAAG [Mat - Exclusion 2 - Tesla mod - D30],0.0266,0.602
GAAAAGAGAGGAUAUACUUUGGGAAAAGAAAAGAUGAUGUUACAUGAGGAUCACCCAUGUAGAAGGCUCAAAAA [Mat - Exclusion 2 - Mod - D156],0.0271,0.0446
AACAGUACAGGAUAUACAUGAGGAUCACCCAUGUGAAAAUUAAGUGGCGUACCACAAAGUAGAAGGGUACUGAA [Moding Maslow Revisited (73) 26],0.0279,0.125
AACAGUACAGGAUAUACAUGAGGAUCACCCAUGUAAAGGGAAUAAAACUAAAAUAAAAGUAGAAGGGUACUGGA [Moding Maslow revisited (73) 20],0.0509,0.0926
AGAAAACAUGAGGAUCACCCAUGUAAGGAUAUGCUGAAAAAACACUGGAAACAGUGCAGCAGAAGGUACAAAGA [Mat - Exclusion 1 - Eli mod - D99],0.0221,0.0433
AAGUUGCUAGGAUAUACUUGGGCAACAAAUGAACCAAUAUAACAUGAGGAUCACCCAUGUAGAAGGAGCAGAAA [JR_Exc002_Sub301],0.0352,0.0635
AGCUAGUCAGGAUAUACGAACAUGUCAAAAGACGUGAAGAAACAUGAGGAUCACCCAUGUAGAAGGGACUAGCA [Mat - Exclusion 2 - JL-Eli mod - D50],0.0167,0.0124
AACAGUACAGGAUAUACAUGAGGAUCACCCAUGUGGGAAAAAAGAUCGAGAGAUCCAUGUAGAAGGGUACUGGA [JL In the Red 06],0.0855,0.0256
GAAAAACAUGAGGAUCACCCAUGUAAGGAUAUGCUGAAAAACACGGAAAAAACGUGCAGCAGAAGGUACAAAAA [Mat - Exclusion 1 - Eli mod - D92],0.0158,0.0281
GCUUGUCUAGGAUAUACAUGAGGAUCACCCAUGUGAGAGAAAAAAGUGAGAAAGAAAAGUAGAAGGAGGUGAGG [salish99-ex3-81],0.0284,0.0297
AGCUAGUCAGGAUAUACGAACAUGUCAGAAGACGUAAGGGAACAUGAGGAUCACCCAUGUAGAAGGGACUAGCA [Diamond 48],0.0331,0.075
GGUUGGGUAGGAUAUACAUGAGGAUCACCCAUGUGAGAGAAAAAAGUGAGAAAGAAAAGUAGAAGGGCUUGACG [salish99-ex3-67],0.0803,0.0587
AAGGGACAUGAGGAUCACCCAUGUGAGGAUAUGCUAUGGAAAUAAAAAAUAAAACAUAGCAGAAGGCAUAAAAA [Mat - Exclusion 1 - Eli mod - D38],0.0693,0.0605
GGAUGCCUAGGAUAUACAUGAGGAUCACCCAUGUGAGAGAAAAAAGUGAGAAAGAAAAGUAGAAGGAGGUGUCG [salish99-ex3-91],0.038,0.0924
UACGUAUGAGGAUAUACAAACAGAAAAAUCAGACGUAAGUGACAUGAGGAUCACCCAUGUAGAAGGCAUAUGCA [JR_Exc002_Sub906],0.0269,0.0197
AGUCGGCGAGGAUAUACAUGAGGAUCACCCAUGUGAGAGAAUAAAGUGAGUUAGACAAGUAGAAGGCGCUGACA [JL Lego Mod 10],0.0405,0.226
AUGGUACAUGAGGAUCACCCAUGUCAGGAUAUCGGCUGUGACAUGAAAAAAAUGUUAGUGAGAAGGGACUGUAA [EX1 Malc#18 Mod 4 - Jieux - Exclusion 1],0.0854,0.102
GUAAACCUAGGAUAUACAUGAGGAUCACCCAUGUAAAAUUUAAUAAAAAGAAAAUCAAGUAGAAGGAGGUAGAU [JR_Exc003_Sub1224],0.0254,0.0293
AGAAACGUAGGAUAUACAUGAGGAUCACCCAUGUAAAGAAAGAAGGGAGAAAGAAGAAGUAGAAGGACGAAGAA [JR_Exc003_Sub003],0.0192,0.0599
AAAGAUGGAGGAUAUACAUGAGGAUCACCCAUGUAGAAAAAAAAUUGGGAAAAAGAAAGUAGAAGGCCAAAAAA [Ex 3 May 43],0.0387,0.0729
